Laboratory results: paper PMC2131756, “Grb7 SH2 domain structure and interactions with a cyclic peptide inhibitor of cancer cell migration and proliferation” (BMC Structural Biology, 2007)
“Also recorded” adds a separate entry of the source.

Assays:
[1] = target: pY1139 phosphopeptide (ErbB2) (Homo sapiens) (UniProt P04626); conditions: cited from earlier work
[2] = test system: full-length Grb7; experiment: Analytical ultracentrifugation: dimerisation of full-length Grb7; type: binding, human
Protocol: (§1) Figure 4 Sedimentation equilibrium analysis of the Grb7 SH2 and Grb7. (a) Absorbance at 280 nm verses radius data at sedimentation equilibrium for Grb7 SH2 at an initial loading concentration of 36 μM. The data collected at 14,000 rpm (circles), 16,600 rpm (squares), 24,300 rpm (diamonds) and 28,800 rpm (triangles) were fitted simultaneously using the nonlinear regression program. (b) Absorbance at 280 nm verses radius data at sedimentation equilibrium for Grb7 at an initial loading concentrations of 12 μM. The data collected at 10,000 rpm (circles) and 11,800 rpm (squares) were fitted simultaneously using the nonlinear regression program NONLIN [77]. The solid line represents the calculated fit to a monomer-dimer model. […]
(§2) Grb7 SH2 domain and full-length Grb7 were analysed at loading concentrations of A280 values of 0.1, 0.3 and 0.6. […] Absorption profiles were recorded at 280 and 360 nm with automatic dialysate absorption compensation. The data were recorded in 0.001-cm steps and ten scans were averaged to produce each profile. The system was deemed to be in equilibrium when profiles recorded 4 h apart were identical. The data were analysed by fitting models of association to the absorbance versus radial position distribution using the program NONLIN [48, 49]. […] The density of the buffer solution was calculated to be 1.00379 g/ml using the program […] v1.08 [74].

[3] = test system: breast cancer cells; conditions: co-treatment with cell permeable G7-18NATE peptide, ref [19]; cited from earlier work
[4] = target: T1, Grb7 SH2 domain (Homo sapiens, UniProt Q14451); experiment: Analytical ultracentrifugation: dimerisation of Grb7 SH2 domain; type: binding
T1 construct: encoding residues 415-532 of human Grb7; GST (N, cleaved yes); made in house; host or cells: Escherichia coli BL21(DE3).pLysS
Protocol: as §1, §2

[5] = target: the molecule itself; experiment: AUC; sedimentation equilibrium, 20°C, Grb7 SH2 at an initial loading concentration of 36 μM, 14,000-28,800 rpm, 50 mM MES pH 6.6, 100 mM NaCl, 1 mM DTT; global fit to a monomer-dimer model (NONLIN); dimer to monomers

Grb7 SH2 (from UniProt Q14451)
Kd [1]: 2.3 µM

full-length Grb7: Full-length Grb7 (residues 1 – 532)
dimer formation (in words) [2]: in the μM range; also recorded: forms dimers in vitro with a similar affinity to that exhibited by the SH2 domain alone; also recorded: same order of magnitude as that obtained for the SH2 domain alone

COc1cccc2c1C(=O)c1c(O)c3c(c(O)c1C2=O)C[C@@](O)(C(=O)CO)C[C@@H]3O[C@H]1C[C@H](N)[C@H](O)[C@H](C)O1 [Doxorubicin]
change of drug EC50 on co-treatment (in words) [3]: significant reduction of the drug EC50 value

B1: Grb7 SH2 domain (residues 415-532 of human Grb7) (domain or fragment)
chain: GSPASGTSLSAAIHRTQLWFHGRISREESQRLIGQQGLVDGLFLVRESQRNPQGFVLSLCHLQKVKHYLILPSEEEGRLYFSMDDGQTRFTDLLQLVEFHQLNRGILPCLLRHCCTRVAL
notes: first two of the 7 N-terminal residues of the construct, printed as GSPASGT; 15N-labelled (minimal medium with 15NH4Cl) for the NMR titration, unlabelled otherwise; Expected mass 13,672 g/mol; Residues 420-532 are seen in the crystal structure; also called 15N-Grb7 SH2
dimer association compared with previous experiments at 4 °C (in words) ([4]; 20 °C versus 4 °C, ref [38]): slightly weaker association | dimer formation (in words) ([4]; analytical ultracentrifugation): in the μM range | Kd [5]: 21.8 µM | stoichiometry N [5]: 2
